# According to patent US20240034816A1 (Sanofi, published 2024):
# T1: human CD32a (human FcγRIIA) (human, UniProt P12318 34-217, limits assumed)
# T1 construct: also called HuFcyRIIa
# T1 sequence (looked up): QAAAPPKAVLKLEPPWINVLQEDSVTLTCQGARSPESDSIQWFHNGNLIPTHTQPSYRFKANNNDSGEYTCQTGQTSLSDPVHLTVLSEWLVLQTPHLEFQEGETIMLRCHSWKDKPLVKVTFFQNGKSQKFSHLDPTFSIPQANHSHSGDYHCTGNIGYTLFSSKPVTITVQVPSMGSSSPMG
# T2: human CD32b (human FcγRIIB) (human, UniProt P31994 43-217, limits assumed)
# T2 construct: also called HuFcyRIIb
# T2 sequence (looked up): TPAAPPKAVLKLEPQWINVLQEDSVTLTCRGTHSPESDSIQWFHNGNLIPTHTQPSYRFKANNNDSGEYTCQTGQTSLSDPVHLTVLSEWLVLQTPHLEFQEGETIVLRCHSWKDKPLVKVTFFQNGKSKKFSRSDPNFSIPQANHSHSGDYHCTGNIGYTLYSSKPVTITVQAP
# T3: human BCMA on RPMI 8226 multiple myeloma cells (human, UniProt Q02223 1-184)
# T3 construct: whole, on cells; also called BCMA on RPMI cells
# T3 sequence (looked up): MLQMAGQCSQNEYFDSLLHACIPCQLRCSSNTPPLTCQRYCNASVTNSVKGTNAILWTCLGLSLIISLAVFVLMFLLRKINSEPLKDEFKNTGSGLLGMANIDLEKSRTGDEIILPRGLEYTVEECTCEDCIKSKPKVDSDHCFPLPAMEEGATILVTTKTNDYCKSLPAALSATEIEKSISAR
# Columns and labels:
# cynomolgus CD32b [1] = biological target: T4, cynomolgus CD32b (cynomolgus); assay: SPR, fit Steady State Affinity, Exp No 2
# T4 construct: also called CyFcyRIIb
# [2] = biological target: T1, human CD32a (human FcγRIIA); assay: SPR, fit Steady State Affinity, Exp No 2
# [3] = biological target: T2, human CD32b (human FcγRIIB); assay: SPR, fit Steady State Affinity, Exp No 2
# [4] = biological target: T5, recombinant human NKp46 extracellular domain (Gln22-Asn255) with C-terminal 6xHis tag (human, UniProt O76036 22-255); assay: SPR (Biacore 8K), NKCE captured by anti-human Fc, antigen as analyte, 1:1 model; Experiment No 1
# T5 construct: range 22-255; also called huNKp46
# Description: (§1) Measurements were performed in multicycle kinetics experiments for each antibody using a Biacore 8K instrument. In each multicycle experiment the antibodies were captured via an anti-hum a Fc antibody immobilized on a series S CM5 sensor chip (human antibody capture kit, Cytiva, Uppsala, Catalog No. BR1008-39).
# (§2) The antigens, diluted as described above (concentration range 0.1 nM to 50 nM), were injected at a flow rate of 60 μL/min for 240 sec followed by a dissociation phase of 400 sec. All analyte concentrations were run in duplicate together with multiple buffer blanks for double referencing. Regeneration of the capture surface was performed with regeneration solution (3 mol/L MgCl2) for 60 sec at 30 μL/min. Binding kinetics data were evaluated with the Biacore 8K Evaluation Software version 1.1.1.7442 using a 1:1 binding model with mass transport limitation.
# [5] = biological target: T6, recombinant cynomolgus NKp46 extracellular domain with C-terminal Flag-M2 tag (cynomolgus, UniProt Q95JB9 22-254); assay: as above
# T6 construct: range 22-254; also called cyno NKp46; not shown: C-terminal Flag-M2 tag
# Description: as §1, §2
# cynomolgus CD32b [6] = biological target: T4, cynomolgus CD32b; assay: SPR, fit Steady State Affinity, mean of 3 experiments
# [7] = biological target: T1, human CD32a (human FcγRIIA); assay: as above
# cynomolgus CD32a [8] = biological target: T7, cynomolgus CD32a (cynomolgus); assay: as above
# T7 construct: also called CyFcyRIIa
# [9] = biological target: T8, human CD16b (human FcgRIIIB) (human, UniProt O75015 17-200, limits assumed); assay: as above
# T8 construct: also called HuFcyRIIIb
# [10] = biological target: T2, human CD32b (human FcγRIIB); assay: as above
# [11] = biological target: T9, human CD16a (human FcγRIIIA), V isoform (human, UniProt P08637 17-208); assay: SPR (Biacore T200), His-tagged huCD16a captured by anti-His antibody on CM5 chip, antibody injected at 5.8-3000 nmol/L, steady state fit
# T9 construct: also called HuFcyRIIIaV; CD16a (V176)
# From the text: All analyte concentrations were run in duplicate together with multiple buffer blanks for double referencing.
# cynomolgus CD32b [12] = biological target: T4, cynomolgus CD32b; assay: SPR, fit Steady State Affinity, Exp No 3
# [13] = biological target: T1, human CD32a (human FcγRIIA); assay: SPR, fit Steady State Affinity, Exp No 3
# cynomolgus CD32a [14] = biological target: T7, cynomolgus CD32a; assay: SPR, fit Steady State Affinity, Exp No 3
# [15] = biological target: T8, human CD16b (human FcgRIIIB); assay: SPR, fit Steady State Affinity, Exp No 3
# [16] = biological target: T2, human CD32b (human FcγRIIB); assay: SPR, fit Steady State Affinity, Exp No 3
# cynomolgus CD16 = biological target: T10, cynomolgus CD16 (cynomolgus, UniProt Q8SPW2 17-208); assay: SPR, fit Two State Reaction, Exp No 2
# T10 construct: also called CyFcyRIII
# [17] = biological target: T9, human CD16a (human FcγRIIIA), V isoform; assay: SPR, fit Two State Reaction, Exp No 2
# [18] = biological target: T3, human BCMA on RPMI 8226 multiple …; assay: flow cytometry titration on RPMI 8226 cells, detection with goat anti-human IgG Fcγ-PE; representative titration
# Description: After staining, cells were resuspended in BD Cellfix and analyzed by flow cytometry. Parameters were recorded and analysed with FlowJo software. Staining EC50 values were calculated with GraphPad prism using 4 parameter logistics non-linear regression model.
# T5 sequence (O76036 other isoform, or with tags, fused parts or gaps limits assumed): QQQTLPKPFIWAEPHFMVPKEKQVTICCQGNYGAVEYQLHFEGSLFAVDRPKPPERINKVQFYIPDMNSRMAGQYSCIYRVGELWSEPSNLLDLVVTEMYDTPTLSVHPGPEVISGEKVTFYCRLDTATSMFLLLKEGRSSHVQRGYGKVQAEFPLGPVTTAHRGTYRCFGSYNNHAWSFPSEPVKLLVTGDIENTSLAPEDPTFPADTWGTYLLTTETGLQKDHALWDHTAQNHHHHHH
# T6 sequence (Q95JB9 22-254): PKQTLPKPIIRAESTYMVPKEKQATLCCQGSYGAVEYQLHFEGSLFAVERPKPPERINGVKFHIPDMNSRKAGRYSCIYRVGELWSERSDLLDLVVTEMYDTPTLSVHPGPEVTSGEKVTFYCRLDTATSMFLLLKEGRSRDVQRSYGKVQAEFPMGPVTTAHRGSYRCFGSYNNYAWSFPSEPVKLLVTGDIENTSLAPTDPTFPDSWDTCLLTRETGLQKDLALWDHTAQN
# T9 sequence (P08637 17-208 F176V limits assumed): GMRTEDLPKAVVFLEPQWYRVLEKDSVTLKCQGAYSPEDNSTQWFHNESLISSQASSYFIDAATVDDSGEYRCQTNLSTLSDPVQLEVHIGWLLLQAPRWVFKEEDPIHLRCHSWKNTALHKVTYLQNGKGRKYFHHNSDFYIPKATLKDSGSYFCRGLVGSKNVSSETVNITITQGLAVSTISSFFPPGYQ
# T8 sequence (O75015 17-200 limits assumed): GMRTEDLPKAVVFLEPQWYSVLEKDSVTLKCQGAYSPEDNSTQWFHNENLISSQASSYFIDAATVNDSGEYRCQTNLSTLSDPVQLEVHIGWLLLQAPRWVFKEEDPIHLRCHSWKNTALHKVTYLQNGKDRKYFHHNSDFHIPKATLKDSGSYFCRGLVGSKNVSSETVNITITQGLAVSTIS
# T10 sequence (Q8SPW2 17-208): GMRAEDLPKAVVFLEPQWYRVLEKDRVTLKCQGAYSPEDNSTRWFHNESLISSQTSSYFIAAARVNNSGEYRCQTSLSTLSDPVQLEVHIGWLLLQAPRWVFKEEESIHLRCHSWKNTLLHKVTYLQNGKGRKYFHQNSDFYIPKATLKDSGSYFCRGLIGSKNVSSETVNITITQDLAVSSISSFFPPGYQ
binder,measurement,setting,value
"NKp46-BCMA_Fc-ADE-DSB NKCE (bispecific antibody, human IgG1, kappa) light: QTVVTQEPSLTVSPGGTVTLTCASSTGTVTPSNYANWVQQKPGQAFRGLIGDNNSRPPGTPARFSASLLGGKAALTLSGVQPEDEAEYYCALWFGNQWVFGGGTKLTVLGGGGSGGGGSDIQMTQSPSSLSASVGDRVTITCRASQDISNYLNWYQQKPGKAPKLLIYYTSRLHSGVPSRFSGSGSGTDFTFTISSLQPEDIATYFCQQGNTRPWTFGGGTKVEIKGGGGSGGGGSRTVAAPSVFIFPPSDEQLKSGTASVVCLLNNFYPREAKVQWKVDNALQSGNSQESVTEQDSKDSTYSLSSTLTLSKADYEKHKVYACEVTHQGLSSPVTKSFNRGEC heavy: QVQLVQSGAEVKKPGSSVKVSCKASGYTFSDYVINWVRQAPGQGLEWMGEIYPGSGTNYYNEKFKAKATITADKSTSTAYMELSSLRSEDTAVYYCARRGRYGLYAMDYWGQGTTVTVSSQVQLVESGGGVVQPGRSLRLSCAASGFTFSNFGMHWVRQAPGRGLEWVAVIWSDETNRYYADSVKGRFTVSRDNVKSTVYLQMNSLISEDTAVYYCARDQQYCSSDSCFTWFDPWGQGTLVTVSSASTKGPSVFPLAPSSKSTSGGTAALGCLVKDYFPEPVTVSWNSGALTSGVHTFPAVLQSSGLYSLSSVVTVPSSSLGTQTYICNVNHKPSNTKVDKKVEPKSCDKTHTCPPCPAPELLAGPDVFLFPPKPKDTLMISRTPEVTCVVVDVSHEDPEVKFNWYVDGVEVHNAKTKPCEEQYNSTYRCVSVLTVLHQDWLNGKEYKCKVSNKALPAPEEKTISKAKGQPREPQVYTLPPCRDELTKNQVSLWCLVKGFYPSDIAVEWESNGQPENNYKTTPPVLDSDGSFFLYSKLTVDKSRWQQGNVFSCSVMHEALHNHYTQKSLSLSPG DKTHTCPPCPAPELLAGPDVFLFPPKPKDTLMISRTPEVTCVVVDVSHEDPEVKFNWYVDGVEVHNAKTKPCEEQYNSTYRCVSVLTVLHQDWLNGKEYKCKVSNKALPAPEEKTISKAKGQPREPQVCTLPPSRDELTKNQVSLSCAVKGFYPSDIAVEWESNGQPENNYKTTPPVLDSDGSFFLVSKLTVDKSRWQQGNVFSCSVMHEALHNRFTQKSLSLSPG",Kd,cynomolgus CD32b [1],1070 nM
same,Kd,[2],656 nM
same,Kd,[3],1060 nM
same,Kd,[4],11.8 nM
same,koff,[4],0.0019 s⁻¹
same,kon,[4],160000 M⁻¹ s⁻¹
same,Kd,[5],16.6 nM
same,koff,[5],0.003 s⁻¹
same,kon,[5],210000 M⁻¹ s⁻¹
same,Kd,cynomolgus CD32b [6],1080 nM
same,Kd,[7],678 nM
same,Kd,cynomolgus CD32a [8],1500 nM
same,Kd,[9],1760 nM
same,Kd,[10],1280 nM
same,Kd,[11],165 nM
same,Kd,cynomolgus CD32b [12],1300 nM
same,Kd,[13],963 nM
same,Kd,cynomolgus CD32a [14],1700 nM
same,Kd,[15],2330 nM
same,Kd,[16],1420 nM
same,Kd,cynomolgus CD16,9.3 nM
same,Kd,[17],12.1 nM
same,EC50 (read off the curve),[18],~1 µg/mL
